3 molecules from patent publication US20120058906A1 (published 2012) can be followed below.

Test [1] has as its target T1, rHuman Notch-1/Fc Chimera, CF (R&D Systems Cat#3647-TK) (human, UniProt P46531 19-526).
T1 construct: Bought Fc chimera; Fc part of the bought chimera not given
In words: ECL (MSD Multi-Spot) binding assay, antigen spotted on plate; Fab 60 nM; blank spot 237.

The target in test [2] is T2, rHuman Erythropoietin R/Fc Chimera, CF (R&D Systems Cat#963-ER) (human, UniProt P19235 25-250).
T2 construct: Purchased Fc chimera; also called EPO R/Fc; Epo R; not shown: Fc portion of the purchased chimera
T2 sequence: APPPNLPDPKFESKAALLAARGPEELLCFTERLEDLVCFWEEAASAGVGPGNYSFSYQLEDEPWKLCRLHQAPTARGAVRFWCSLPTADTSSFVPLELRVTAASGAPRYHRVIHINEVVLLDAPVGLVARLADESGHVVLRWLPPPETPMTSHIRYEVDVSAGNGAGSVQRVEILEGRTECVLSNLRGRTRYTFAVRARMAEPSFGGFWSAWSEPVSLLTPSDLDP
The test can be described thus: MSD ECL multi-spot plate, antigen immobilized; Fab 8 nM; blank spot 489.

Test [3] deals with T3, rHuman HGF R/c-MET/Fc Chimera, CF (R&D Systems Cat#358-MT/CF) (human, UniProt P08581 25-932).
T3 construct: Purchased Fc chimera; also called HGF R/Fc; not shown: Fc portion of the purchased chimera
The description is as above.

For test [4], the target named is T4, rHuman ErbB2/Fc Chimera, CF (R&D Systems Cat#1129-ER) (human, UniProt P04626 23-652).
T4 construct: Purchased Fc chimera; also called HER2/neu; not shown: Fc portion of the purchased chimera
The description is as above.

Test [5] deals with T5, Recombinant Human DLL4 (R&D Systems Cat#1506-D4/CF) (human, UniProt Q9NR61 27-524).
T5 construct: Purchased recombinant protein; also called delta-like protein 4
The test is described as above.

The target of test [6] is T6, rHuman Notch-1/Fc Chimera, CF (R&D Systems Cat#3647-TK) (human, UniProt P46531 19-526).
T6 construct: Purchased Fc chimera; not shown: Fc portion of the purchased chimera
The description is as above.

Test [7] has as its target T7, rHuman CD44/Fc Chimera, CF (R&D Systems Cat#3660-CD) (human, UniProt P16070 21-220).
T7 construct: Purchased Fc chimera; not shown: Fc portion of the purchased chimera
The test is described as above.

In test [8] the target is T8, rHuman EGF R/Fc Chimera, CF (R&D Systems Cat#344-ER) (human, UniProt P00533 25-645).
T8 construct: Purchased Fc chimera; not shown: Fc portion of the purchased chimera
Described as above.

For test [9], the target named is T9, rHuman P-Cadherin/Fc Chimera, CF (R&D Systems Cat#861-PC) (human, UniProt P22223 108-654).
T9 construct: Purchased Fc chimera; not shown: Fc portion of the purchased chimera
Described as above.

In test [10] the target is T10, rHuman IGF-1 sR (IGF-1 sR), CF (R&D Systems Cat#391-GR) (human, UniProt P08069 31-932).
T10 construct: Purchased soluble receptor; also called insulin-like growth factor-1 soluble receptor; IGF-R1
Described as above.

Test [11] deals with T11, rHuman ErbB2/Fc Chimera, CF (R&D Systems Cat#1129-ER) (human, UniProt P04626 23-652).
T11 construct: Bought Fc chimera; also called HER2/neu; not shown: Fc of the bought chimera
The test can be described thus: ECL (MSD multi-spot), antigen on plate, Fab 2 nM.

In test [12] the target is T12, rHuman CD44/Fc Chimera, CF (R&D Systems Cat#3660-CD) (human, UniProt P16070 21-220).
T12 construct: Bought Fc chimera; not shown: Fc of the bought chimera
The test can be described thus: ECL (MSD multi-spot), antigen on plate, Fab 2 nM.

Test [13] addresses T13, rHuman HGF R/c-MET/Fc Chimera, CF (R&D Systems Cat#358-MT/CF) (human, UniProt P08581 25-932).
T13 construct: Bought Fc chimera; also called HGF R/Fc; not shown: Fc of the bought chimera
The test can be described thus: ECL (MSD multi-spot), antigen on plate, Fab 2 nM.

Test [14] deals with T14, Recombinant Human DLL4 (R&D Systems Cat#1506-D4/CF) (human, UniProt Q9NR61 27-524).
T14 construct: Bought recombinant protein; also called delta-like protein 4
The test can be described thus: ECL (MSD multi-spot), antigen on plate, Fab 2 nM.

The target in test [15] is T15, rHuman IGF-1 sR (insulin-like growth factor-1 soluble receptor), CF (R&D Systems Cat#391-GR) (human, UniProt P08069 31-932).
T15 construct: Bought soluble receptor; also called IGF-R1
The test can be described thus: ECL (MSD multi-spot), antigen on plate, Fab 2 nM.

The target of test [16] is T16, rHuman EGF R/Fc Chimera, CF (R&D Systems Cat#344-ER) (human, UniProt P00533 25-645).
T16 construct: Bought Fc chimera; also called ErbB-1; not shown: Fc of the bought chimera
In words: ECL (MSD multi-spot), antigen on plate, Fab 2 nM.

Test [17] concerns the target T17, rHuman P-Cadherin/Fc Chimera, CF (R&D Systems Cat#861-PC) (human, UniProt P22223 108-654).
T17 construct: Bought Fc chimera; also called CDH3; not shown: Fc of the bought chimera
The test can be described thus: ECL (MSD multi-spot), antigen on plate, Fab 2 nM.

The target in test [18] is T18, rHuman Erythropoietin R/Fc Chimera, CF (R&D Systems Cat#963-ER) (human, UniProt P19235 25-250).
T18 construct: Bought Fc chimera; also called EPO R/Fc; Epo R; not shown: Fc of the bought chimera
T18 sequence: T2 sequence
In words: ECL (MSD multi-spot), antigen on plate, Fab 2 nM.

Test [19] concerns the target T19, rHuman Notch-1/Fc Chimera, CF (R&D Systems Cat#3647-TK) (human, UniProt P46531 19-526).
T19 construct: Bought Fc chimera; not shown: Fc of the bought chimera
The test can be described thus: ECL (MSD multi-spot), antigen on plate, Fab 2 nM.
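Note: blank spot per well as comparator with Hit at signal to blank ratio of 4 or more.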

B1: Fab VH6-1_IGHD3-3*01_IGHJ4*01 & V4-3_IGLJ4*01 (Fab, V domains shown)
VH: QVQLQQSGPGLVKPSQTLSLTCAISGDSVSSNSAAWNWIRQSPSRGLEWLGRTYYRSKWYNDYAVSVKSRITINPDTSKNQFSLQLNSVTPEDTAVYYCAREYYDFWSGYYTDYFDYWGQGTLVTVSS
VL: QPVLTQPTSLSASPGASARLTCTLRSGINLGSYRIFWYQQKPESPPRYLLSYYSDSSKHQGSGVPSRFSGSKDASSNAGILVISGLQSEDEADYYCMIWHSSASFVFGGGTQLIIL
notes: Tested as a Fab made in E. coli; also called IGHV6-1*01
Consider B1, for which the ECL signal in [1] is 415.

B2: Fab VH5-51_IGHD5-18*01>3_IGHJ4*01_G100K & V3-4_IGLJ1*01 (Fab, V domains shown)
VH: EVQLVQSGAEVKKPGESLKISCKGSGYSFTSYWIGWVRQMPGKGLEWMGIIYPGDSDTRYSPSFQGQVTISADKSISTAYLQWSSLKASDTAMYYCARRKYSYGYDYFDYWGQGTLVTVSS
VL: QTVVTQEPSFSVSPGGTVTLTCGLSSGSVSTSYYPSWYQQTPGQAPRTLIYSTNTRSSGVPDRFSGSILGNKAALTITGAQADDESDYYCVLYMGSGISYVFGTGTKVTVL
notes: It was expressed as a Fab: CH1 with tags from Plasmid A and lambda CL from Plasmid E; also called Fab No. 22
Turning to B2, the ECL signal was 881 ECL signal in test [2]; 1260 ECL signal in test [3]; 1230 ECL signal in [4]; 11400 ECL signal in test [5]; 831 ECL signal in test [6]; 853 ECL signal in test [7]. Besides, the values for the ECL signal in [8], in [9] and in test [10] were 1030 ECL signal, 788 ECL signal and 1200 ECL signal, respectively.

B3: Fab VH1-46_IGHD6-6*01_IGHJ1*01_S102A_S103P_S104F & L6_IGKJ1*01_S28P (Fab, V domains shown)
VH: QVQLVQSGAEVKKPGASVKVSCKASGYTFTSYYMHWVRQAPGQGLEWMGIINPSGGSTSYAQKFQGRVTMTRDTSTSTVYMELSSLRSEDTAVYYCAREEYAPFSAEYFQHWGQGTLVTVSS
VL: EIVLTQSPATLSLSPGERATLSCRASQPVSSYLAWYQQKPGQAPRLLIYDASNRATGIPARFSGSGSGTDFTLTISSLEPEDFAVYYCQQRSNWPPWTFGQGTKVEIKR
notes: Fab
For the molecule B3, the ECL signal in test [11] was determined as 176 ECL signal; in test [12], 266 ECL signal; in [13], 255 ECL signal; in test [14], 6100 ECL signal; in test [15], 205 ECL signal; in [16], 352 ECL signal. Also, the ECL signal is 223 ECL signal in test [17], 251 ECL signal in test [18] and 307 ECL signal in [19].
